Results on 5 compounds are retold here after patent US20200291096A1, “BICYCLIC PEPTIDE LIGAND STING CONJUGATES AND USES THEREOF” (priority 2017, published 2020).

Data set [1] can be described thus: in vitro. The note with it: rat, plasma, pH 7.4.
Experimental: (§1) The pooled frozen mouse, rat, monkey or human plasma is thawed in a water bath at 37° C. prior to experiment. Plasma is centrifuged at 4000 rpm for 5 min and the clots are removed if any. The pH is adjusted to 7.4±0.1 if required. 5 mM intermediate solutions of test compounds are prepared with DMSO. 1 mM intermediate solution of positive control Propantheline is prepared by diluting 5 μL of the stock solution with 45 μL ultra pure water. 1 mM intermediate solution of positive control Enalaprit is prepared by diluting 5 μL of the stock solution with 45 μL DMSO. 100 μM dosing solution is prepared by diluting 20 μL of the intermediate solution (1 mM) with 180 μL DMSO. For positive controls, 100 μM intermediate solution is prepared by diluting 20 μL of the stock solution with 180 μL 45% MeOH/H2O. […] 196 μL of blank plasma is spiked with 4 μL of dosing solution (100 μM) to achieve 2 μM of the final concentration in duplicate and samples are incubated at 37° C. in a water bath. At each time point (0, 1, 2, 4, 6 and 24 hr), 800 μL of stop solution (200 ng/mL tolbutamide, 200 ng/ML Labetalol in 50% MeOH/ACN) was added to precipitate protein and mixed thoroughly. Sample plates are centrifuged at 4,000 rpm for 10 min. An aliquot of supernatant (150 μL) is transferred from each well before submitting to LC-MS/MS analysis.
(§2) The percentage of test compound remaining at the individual time points relative to the 0 hour sample is calculated using following equation: Percent Remaining=100×(PAR at appointed incubation time/PAR at To time) where PAR is the peak area ratio of analyte versus internal standard (IS).
The nature of the next data set: Plasma stability (cyno). Format: in vitro ADME. Particulars: cynomolgus monkey, pH 7.4, 37° C., read-out: T1/2 (cyno).
Data set [2] is described as follows: in vitro. The note with it: mouse, plasma, pH 7.4.
Experimental: as §1, §2
Data set [3] is described as follows: in vitro. Particulars: human, plasma, pH 7.4.
Experimental: as §1, §2
Data set [4] is described as follows: in vitro. The note with it: male, CD-1, mouse, whole blood.
Experimental: CD-1 mouse blood (n >2,male, fasted overnight) is collected from animals housed at an internal facility. (EDTA-K2 is used as anticoagulant)
The test compounds and positive control stock solutions are prepared to 10 mM in DMSO or ultrapure water. […] The dosing solutions of test compounds and controls are prepared by diluting the stock solution with 45% MeOH/H2O to achieve 100 uM. Test compound solutions (final incubation concentration=2 μM) are incubated with blood (final DMSO concentration≤1%) at six different time points (0, 1, 2, 4, 6 and 24 hours) in duplicate (n=2). The reaction is terminated by adding 100 uL ultra-pure water, mixing well, then adding 800 uL of 100% methanol containing 200 ng/mL tolbutamide and 200 ng/mL labetalol as internal standards. Samples are then vortexed and centrifuged at 3200×g for 20 minutes. Following centrifugation, the concentration of test compound in the supernatant is determined semi-quantitatively by LC-MS/MS. The percentage of test compound remaining at the individual time points relative to the 0 hour sample is then reported. The percent remaining of test compound after incubation in blood is calculated using following equation: Percent Remaining=100×(PAR at appointed incubation time/PAR at To time) where PAR is the peak area ratio of analyte versus internal standard (IS).
The conditions of data set [5]: 3 mg/kg IV, male CD-1 mice, plasma (FIG. 1).
Experimental: Male CD-1 mice were dosed with 3 mg/kg of Bicycle Conjugate formulated in 25 mM Histidine HCl, 10% sucrose pH 7 via tail vein injection. Serial bleeding (about 80 μL blood/time point) was performed via submadibular or saphenous vein at each time point. All blood samples were immediately transferred into prechilled microcentrifuge tubes containing 2 μL K2-EDTA (0.5M) as anti-coagulant and placed on wet ice. Blood samples were immediately processed for plasma by centrifugation at approximately +4° C., 3000 g. The precipitant including internal standard (350 uL) was immediately added into the 35 uL plasma sample, mixed well and centrifuged at 3220 g, +4° C. for 15 minutes. The supernatant was transferred into pre-labelled polypropylene microcentrifuge tubes, and then quick-frozen over dry ice. The samples were stored at −70° C. or below as needed until analysis. Supernatant samples were mixed with 50 uL water, vortexed well and centrifuged at 3220 g, +4° C. for 15 minutes. A sample of the supernatant was injected for LC-MS/MS analysis using an Acquity UPLC with AB Sciex 6500+Triple Quad MS in positive ion mode to determine the concentrations of Bicycle conjugate and released payload. Plasma concentration versus time data were analyzed by non-compartmental approaches using the Phoenix WinNonlin 6.3 software program. […]

Starred links: 1 amine or outer side, 2 acyl side, 3 side chain; linkers in the order of their positions; H or OH if unused. Positions of bridges follow the written chain, without caps; N, C: chain ends. Non-standard residues stand in square brackets, D forms with d. Residues, ends and D or L forms follow the SMILES beside them. *: point of attachment. X1 = CC(C)[C@H](NC(=O)Cn1cc(CCC(=O)*)nn1)C(=O)N[C@@H](CCCNC(N)=O)C(=O)Nc1ccc(COC(=O)N(C)CCN(C)C(=O)O[C@@H]2[C@@H]3OP(=O)(O)OC[C@H]4O[C@@H](n5cnc6c(N)ncnc65)[C@H](O)[C@@H]4OP(=O)(O)OC[C@H]3O[C@H]2n2cnc3c(=O)[nH]c(N)nc32)cc1; X4 = CC(C)[C@H](NC(=O)Cn1cc(CCC(=O)*)nn1)C(=O)N[C@@H](CCCNC(N)=O)C(=O)Nc1ccc(COC(=O)NCCNC(=O)O[C@@H]2[C@@H]3OP(=O)(O)OC[C@H]4O[C@@H](n5cnc6c(N)ncnc65)[C@H](O)[C@@H]4OP(=O)(O)OC[C@H]3O[C@H]2n2cnc3c(=O)[nH]c(N)nc32)cc1; X5 = Nc1nc2c(ncn2[C@@H]2O[C@@H]3COP(=O)(O)O[C@H]4[C@@H](O)[C@H](n5cnc6c(N)ncnc65)O[C@@H]4COP(=O)(O)O[C@H]3[C@H]2OC(=O)NCCSSCCCC(=O)*)c(=O)[nH]1; X2 = Nc1nc2c(ncn2[C@@H]2O[C@@H]3COP(=O)(O)O[C@H]4[C@@H](O)[C@H](n5cnc6c(N)ncnc65)O[C@@H]4COP(=O)(O)O[C@H]3[C@H]2OC(=O)*)c(=O)[nH]1; X6 = Nc1ncnc2c1ncn2[C@@H]1O[C@@H]2COP(=O)(S)O[C@H]3[C@@H](OC(=O)*)[C@H](n4cnc5c(N)ncnc54)O[C@@H]3COP(=O)(S)O[C@H]2[C@H]1F; 1Nal = N[C@@H](Cc1cccc2ccccc12)C(=O)O; TBMB = c1c(C[*:1])cc(C[*:3])cc1C[*:2]; X3 = O=C(CCc1cn(CCCN[*:1])nn1)[*:2]; Tle = CC(C)(C)[C@H](N)C(=O)O; βAla = NCCC(=O)O; Sar = CNCC(=O)O Some results are limits rather than exact numbers.

Experimental for Plasma stability (cyno): as §1, §2

As for `C[C@H](NC(=O)CN(C)C(=O)CN(C)C(=O)CN(C)C(=O)CN(C)C(=O)CN(C)C(=O)CN(C)C(=O)CN(C)C(=O)CN(C)C(=O)CN(C)C(=O)CN(C)C(=O)CCNC(=O)CCc1cn(CCCNC(=O)O[C@@H]2[C@@H]3OP(=O)(S)OC[C@H]4O[C@@H](n5cnc6c(N)ncnc65)[C@H](F)[C@@H]4OP(=O)(S)OC[C@H]3O[C@H]2n2cnc3c(N)ncnc32)nn1)C(=O)N[C@H]1CSCc2cc3cc(c2)CSC[C@H](NC(=O)[C@@H](C)NC(=O)[C@H](Cc2cccc4ccccc24)NC(=O)[C@H](CCC(=O)O)NC(=O)[C@H](CC(N)=O)NC(=O)[C@@H](C)NC1=O)C(=O)N[C@@H](CCC(=O)O)C(=O)N[C@@H](CC(=O)O)C(=O)N[C@@H](Cc1ccccc1)C(=O)N[C@@H](Cc1ccc(O)cc1)C(=O)N[C@@H](CC(=O)O)C(=O)N[C@@H](C(C)(C)C)C(=O)N[C@H](C(N)=O)CSC3` (stereo partly shown) [Conjugate 1 of Example 7.4] (X6-[X3][βAla][Sar][Sar][Sar][Sar][Sar][Sar][Sar][Sar][Sar][Sar]AC[dA]NE[1Nal][dA]CEDFYD[Tle]C-NH2; linker 14-20-27 via TBMB), the half-life at 2 μM in “in vitro [1]” was over 24 h; in the data set “Plasma stability (cyno)”, over 24 h; in the data set “in vitro [2]”, 6 to 24 h; in the data set “in vitro [3]”, over 24 h.
As to `C[C@H](NC(=O)CN(C)C(=O)CN(C)C(=O)CN(C)C(=O)CN(C)C(=O)CN(C)C(=O)CN(C)C(=O)CN(C)C(=O)CN(C)C(=O)CN(C)C(=O)CN(C)C(=O)CCNC(=O)CCCSSCCNC(=O)O[C@@H]1[C@@H]2OP(=O)(O)OC[C@H]3O[C@@H](n4cnc5c(N)ncnc54)[C@H](O)[C@@H]3OP(=O)(O)OC[C@H]2O[C@H]1n1cnc2c(=O)[nH]c(N)nc21)C(=O)N[C@H]1CSCc2cc3cc(c2)CSC[C@H](NC(=O)[C@@H](C)NC(=O)[C@H](Cc2cccc4ccccc24)NC(=O)[C@H](CCC(=O)O)NC(=O)[C@H](CC(N)=O)NC(=O)[C@@H](C)NC1=O)C(=O)N[C@@H](CCC(=O)O)C(=O)N[C@@H](CC(=O)O)C(=O)N[C@@H](Cc1ccccc1)C(=O)N[C@@H](Cc1ccc(O)cc1)C(=O)N[C@@H](CC(=O)O)C(=O)N[C@@H](C(C)(C)C)C(=O)N[C@H](C(N)=O)CSC3` [I-64] ({X5-βAla}-[Sar][Sar][Sar][Sar][Sar][Sar][Sar][Sar][Sar][Sar]AC[dA]NE[1Nal][dA]CEDFYD[Tle]C-NH2; linker 12-18-25 via TBMB), the half-life at 2 μM in the data set “in vitro [1]”, in the data set “Plasma stability (cyno)”, in “in vitro [2]” and in the data set “in vitro [3]” was under 2 h in each case.
With `CC(C)[C@H](NC(=O)Cn1cc(CCC(=O)NCCC(=O)N(C)CC(=O)N(C)CC(=O)N(C)CC(=O)N(C)CC(=O)N(C)CC(=O)N(C)CC(=O)N(C)CC(=O)N(C)CC(=O)N(C)CC(=O)N(C)CC(=O)N[C@@H](C)C(=O)N[C@H]2CSCc3cc4cc(c3)CSC[C@H](NC(=O)[C@@H](C)NC(=O)[C@H](Cc3cccc5ccccc35)NC(=O)[C@H](CCC(=O)O)NC(=O)[C@H](CC(N)=O)NC(=O)[C@@H](C)NC2=O)C(=O)N[C@@H](CCC(=O)O)C(=O)N[C@@H](CC(=O)O)C(=O)N[C@@H](Cc2ccccc2)C(=O)N[C@@H](Cc2ccc(O)cc2)C(=O)N[C@@H](CC(=O)O)C(=O)N[C@@H](C(C)(C)C)C(=O)N[C@H](C(N)=O)CSC4)nn1)C(=O)N[C@@H](CCCNC(N)=O)C(=O)Nc1ccc(COC(=O)NCCNC(=O)O[C@@H]2[C@@H]3OP(=O)(O)OC[C@H]4O[C@@H](n5cnc6c(N)ncnc65)[C@H](O)[C@@H]4OP(=O)(O)OC[C@H]3O[C@H]2n2cnc3c(=O)[nH]c(N)nc32)cc1` [I-65] ({X4-βAla}-[Sar][Sar][Sar][Sar][Sar][Sar][Sar][Sar][Sar][Sar]AC[dA]NE[1Nal][dA]CEDFYD[Tle]C-NH2; linker 12-18-25 via TBMB), the half-life at 2 μM is over 24 h in the data set “in vitro [1]”, over 24 h in the data set “Plasma stability (cyno)”, 6 to 24 h in the data set “in vitro [2]” and over 24 h in the data set “in vitro [3]”.
On to `C[C@H](NC(=O)CN(C)C(=O)CN(C)C(=O)CN(C)C(=O)CN(C)C(=O)CN(C)C(=O)CN(C)C(=O)CN(C)C(=O)CN(C)C(=O)CN(C)C(=O)CN(C)C(=O)CCNC(=O)CCc1cn(CCCNC(=O)O[C@@H]2[C@@H]3OP(=O)(O)OC[C@H]4O[C@@H](n5cnc6c(N)ncnc65)[C@H](O)[C@@H]4OP(=O)(O)OC[C@H]3O[C@H]2n2cnc3c(=O)[nH]c(N)nc32)nn1)C(=O)N[C@H]1CSCc2cc3cc(c2)CSC[C@H](NC(=O)[C@@H](C)NC(=O)[C@H](Cc2cccc4ccccc24)NC(=O)[C@H](CCC(=O)O)NC(=O)[C@H](CC(N)=O)NC(=O)[C@@H](C)NC1=O)C(=O)N[C@@H](CCC(=O)O)C(=O)N[C@@H](CC(=O)O)C(=O)N[C@@H](Cc1ccccc1)C(=O)N[C@@H](Cc1ccc(O)cc1)C(=O)N[C@@H](CC(=O)O)C(=O)N[C@@H](C(C)(C)C)C(=O)N[C@H](C(N)=O)CSC3` [I-66] (X2-[X3][βAla][Sar][Sar][Sar][Sar][Sar][Sar][Sar][Sar][Sar][Sar]AC[dA]NE[1Nal][dA]CEDFYD[Tle]C-NH2; linker 14-20-27 via TBMB), for which the “stability in mouse blood” value is recorded as “dramatic stability”. In the data set “in vitro [1]”, this compound returned a half-life at 2 μM of over 24 h. In the data set “Plasma stability (cyno)”, the half-life at 2 μM is over 24 h. Besides, in the data set “in vitro [2]”, the half-life at 2 μM is over 24 h. This compound also displayed a half-life at 2 μM in “in vitro [4]” of 6 to 24 h. In addition, the half-life at 2 μM in the data set “in vitro [3]” is over 24 h.
For the compound `CC(C)[C@H](NC(=O)Cn1cc(CCC(=O)NCCC(=O)N(C)CC(=O)N(C)CC(=O)N(C)CC(=O)N(C)CC(=O)N(C)CC(=O)N(C)CC(=O)N(C)CC(=O)N(C)CC(=O)N(C)CC(=O)N(C)CC(=O)N[C@@H](C)C(=O)N[C@H]2CSCc3cc4cc(c3)CSC[C@H](NC(=O)[C@@H](C)NC(=O)[C@H](Cc3cccc5ccccc35)NC(=O)[C@H](CCC(=O)O)NC(=O)[C@H](CC(N)=O)NC(=O)[C@@H](C)NC2=O)C(=O)N[C@@H](CCC(=O)O)C(=O)N[C@@H](CC(=O)O)C(=O)N[C@@H](Cc2ccccc2)C(=O)N[C@@H](Cc2ccc(O)cc2)C(=O)N[C@@H](CC(=O)O)C(=O)N[C@@H](C(C)(C)C)C(=O)N[C@H](C(N)=O)CSC4)nn1)C(=O)N[C@@H](CCCNC(N)=O)C(=O)Nc1ccc(COC(=O)N(C)CCN(C)C(=O)O[C@@H]2[C@@H]3OP(=O)(O)OC[C@H]4O[C@@H](n5cnc6c(N)ncnc65)[C@H](O)[C@@H]4OP(=O)(O)OC[C@H]3O[C@H]2n2cnc3c(=O)[nH]c(N)nc32)cc1` [I-68] ({X1-βAla}-[Sar][Sar][Sar][Sar][Sar][Sar][Sar][Sar][Sar][Sar]AC[dA]NE[1Nal][dA]CEDFYD[Tle]C-NH2; linker 12-18-25 via TBMB), the “stability in mouse blood” value was “dramatic stability”. The compound also yielded a half-life at 2 μM in “in vitro [1]” of over 24 h. Also, the systemic elimination result in data set [5] is recorded as “rapid systemic elimination”. For the same compound, the half-life at 2 μM in “Plasma stability (cyno)” is over 24 h. In “in vitro [2]”, this compound yielded a half-life at 2 μM of 6 to 24 h. The compound further gave a half-life at 2 μM in “in vitro [4]” of 2 to 6 h. In “in vitro [3]”, the half-life at 2 μM is over 24 h.
